# Values of other authors, collected in PMC2874015.
# Experiments:
# [1] = biological target: GCN4 leucine zipper (Saccharomyces cerevisiae) (UniProt P03069)
# [2] = biological target: c-Jun leucine zipper (Homo sapiens) (UniProt P05412)
# Sequence of c-Jun leucine zipper (P05412 277-311): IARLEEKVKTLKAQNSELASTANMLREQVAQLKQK
# Sequence of GCN4 leucine zipper (P03069 250-277): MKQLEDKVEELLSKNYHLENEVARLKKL
Kd [1] [µM],Kd [2] [µM],Substance
0.008,,GCN4 leucine zipper (from UniProt P03069)
,448,c-Jun leucine zipper (from UniProt P05412)
